± gives the standard deviation of the averaged measurements.

The values that follow come from the supplement of paper PMC11246515.

A short description of the data set: total protein half-life in vivo (active degradation + dilution); higher = more stable protein.
Setting [1] is: wild type E. coli NCM3722, growth: P-lim chemostat, doubling time 12 h.
Setting [2] is: E. coli NCM3722 delta-clpP delta-lon delta-hslV, growth: N-lim chemostat, doubling time 6 h.
Setting [3] is: E. coli NCM3722 delta-clpP, growth: N-lim chemostat, doubling time 6 h.
Setting [4] is: E. coli NCM3722 delta-lon, growth: N-lim chemostat, doubling time 6 h.
Where [5] appears, read: wild type E. coli NCM3722, growth: C-lim chemostat, doubling time 6 h.
The mark [6] stands for this setting: wild type E. coli NCM3722, growth: N-lim chemostat, doubling time 6 h.
Setting [7] is: wild type E. coli NCM3722, growth: P-lim chemostat, doubling time 6 h.
Setting [8] is: E. coli NCM3722 delta-hslV, growth: N-lim chemostat, doubling time 6 h.
[9] abbreviates: E. coli NCM3722 delta-smpB, growth: N-lim chemostat, doubling time 6 h.
The mark [10] stands for this setting: wild type E. coli NCM3722, growth: C-lim chemostat, doubling time 3 h.
The mark [11] stands for this setting: wild type E. coli NCM3722, growth: C-lim chemostat, doubling time 12 h.
Where [12] appears, read: wild type E. coli NCM3722, growth: N-lim chemostat, doubling time 12 h.

With “MSGKPAARQGDMTQYGGSIVQGSAGVRIGAPTGVACSVCPGGVTSGHPVNPLLGAKVLPGETDIALPGPLPFILSRTYSSYRTKTPAPVGSLGPGWKMPADIRLQLRDNTLILSDNGGRSLYFEHLFPGEDGYSRSESLWLVRGGVAKLDEGHRLAALWQALPEELRLSPHRYLATNSPQGPWWLLGWCERVPEADEVLPAPLPPYRVLTGLVDRFGRTQTFHREAAGEFSGEITGVTDGAGRHFRLVLTTQAQRAEEARQQAISGGTEPSAFPDTLPGYTEYGRDNGIRLSAVWLTHDPEYPENLPAAPLVRYGWTPRGELAAVYDRSNTQVRSFTYDDKYRGRMVAHRHTGRPEICYRYDSDGRVTEQLNPAGLSYTYQYEKDRITITDSLNRREVLHTQGEGGLKRVVKKEHADGSVTQSQFDAVGRLRAQTDAAGRTTEYSPDVVTGLITRITTPDGRASAFYYNHHSQLTSATGPDGLEIRREYDEWGRLIQETAPDGDITRYRYDNPHSDLPCATEDATGSRKTMTWSRYGQLLSFTDCSGYVTRYDHDRFGQVTAVHREEGLSQYRAYDSRGQLIAVKDTQGHETRYEYNAAGDLTTVIAPDGSRNGTQYDAWGKAICTTQGGLTRSMEYDAAGRVIRLTSENGSHTTFRYDVLDRLIQETGFDGRTQRYHHDLTGKLIRSEDEGLVTHWHYDEADRLTHRTVNGETAERWQYDERGWLTDISHISEGHRVTVHYGYDSKGRLASEHLTVHHPQTNELLWQHETRHAYNAQGLANRCIPDSLPAVEWLTYGSGWLSGMKLGDTPLVEYTRDRLHRETLRSFGRYELTTAYTPAGQLQSQHLNSLLSDRDYTWNDNGELIRISSPRQTRSYSYSTTGRLTGVHTTAANLDIRIPYTTDPAGNRLPDPELHPDSALSMWPDNRIARDAHYLYRYDRHGRLTEKTDLIPEGVIRTDDERTHRYHYDSQHRLVHYTRTQYAEPLVESRYLYDPLGRRVAKRVWRRERDLTGWMSLSRKPQVTWYGWDGDRLTTIQNDRTRIQTIYQPGSFTPLIRVETATGELAKTQRRSLADTLQQSGGEDGGSVVFPPVLVQMLDRLESEILADRVSEESRRWLASCGLTVAQMQSQMDPVYTPARKIHLYHCDHRGLPLALISTEGTTAWYAEYDEWGNLLNEENPHQLQQLIRLPGQQYDEESGLYYNRHRYYDPLQGRYITQDPIGLKGGWNFYQYPLNPISNIDPLGLETLKCIKPLHSMGGTGERSGPDIWGNPFYHQYLCVPDGKGDYTCGGQDQRGESKGDGLWGPGKASNDTKEAAGRCDLVETDNSCVENCLKGKFKEVRPRYSVLPDIFTPINLGLFKNCQDWSNDSLETCKMKCSGNNIGRFIRFVFTGVM”, the “total protein half-life in vivo” value under setting [1] was 13.1 h.

“MFEYLPELMKGLHTSLTLTVASLIVALILALIFTIILTLKTPVLVWLVRGYITLFTGTPLLVQIFLIYYGPGQFPTLQEYPALWHLLSEPWLCALIALSLNSAAYTTQLFYGAIRAIPEGQWQSCSALGMSKKDTLAILLPYAFKRSLSSYSNEVVLVFKSTSLAYTITLMEVMGYSQLLYGRTYDVMVFGAAGIIYLVVNGLLTLMMRLIERKALAFERRN [P0AE30]”: the “total protein half-life in vivo” value reads like this: under setting [2], 5.31 h; under setting [3], 6.27 h; under setting [4], 5.01 h; under setting [5], 5.55 h; under setting [6], 5.22 h; under setting [7], 6.32 h. Also, under setting [1], the “total protein half-life in vivo” value was found to be 11 h.

For the sequence “MKESNSRREFLSQSGKMVTAAALFGTSVPLAHAAVAGTLNCEANNTMKITDPHYYLDNVLLETGFDYENGVAVQTRTARQTVEIQDGKIVALRENKLHPDATLPHYDAGGKLMLPTTRDMHIHLDKTFYGGPWRSLNRPAGTTIQDMIKLEQKMLPELQPYTQERAEKLIDLLQSKGTTIARSHCNIEPVSGLKNLQNLQAVLARRQAGFECEIVAFPQHGLLLSKSEPLMREAMQAGAHYVGGLDPTSVDGAMEKSLDTMFQIALDYDKGVDIHLHETTPAGVAAINYMVETVEKTPQLKGKLTISHAFALATLNEQQVDELANRMVVQQISIASTVPIGTLHMPLKQLHDKGVKVMTGTDSVIDHWSPYGLGDMLEKANLYAQLYIRPNEQNLSRSLFLATGDVLPLNEKGERVWPKAQDDASFVLVDASCSAEAVARISPRTATFHKGQLVWGSVAG”, the “total protein half-life in vivo” value was 4.64 ± 0.15 h under setting [2]; 4.34 ± 0.53 h under setting [3]; 4.51 ± 0.31 h under setting [8]; 4.82 ± 0.11 h under setting [4]; 3.937 ± 0.008 h under setting [9]; 3.21 ± 0.41 h under setting [10]. Further, the “total protein half-life in vivo” value under setting [11] worked out at 9.95 ± 0.62 h; the “total protein half-life in vivo” value under setting [6] came to 4.32 ± 0.17 h; the “total protein half-life in vivo” value under setting [12] amounted to 6.843 ± 0.056 h; the “total protein half-life in vivo” value under setting [7] was determined as 5.67 ± 0.43 h; the “total protein half-life in vivo” value under setting [1] stood at 11.53 ± 0.036 h.

Turning to “MVKTQRVVITPGEPAGIGPDLVVQLAQREWPVELVVCADATLLTNRAAMLGLPLTLRPYSPNSPAQPQTAGTLTLLPVALRAPVTAGQLAVENGHYVVETLARACDGCLNGEFAALITGPVHKGVINDAGIPFTGHTEFFEERSQAKKVVMMLATEELRVALATTHLPLRDIADAITPALLHEVIAILHHDLRTKFGIAEPRILVCGLNPHAGEGGHMGTEEIDTIIPVLNELRAQGMKLNGPLPADTLFQPKYLDNADAVLAMYHDQGLPVLKYQGFGRGVNITLGLPFIRTSVDHGTALELAGRGKADVGSFITALNLAIKMIVNTQ”, the “total protein half-life in vivo” value is, setting by setting: under setting [2], 4.27 h; under setting [3], 3.54 h; under setting [8], 3.58 h; under setting [4], 4.45 ± 0.1 h; under setting [9], 4.72 ± 0.25 h; under setting [10], 2.98 ± 0.15 h. Also, the “total protein half-life in vivo” value under setting [5] was 5.541 ± 0.046 h; the “total protein half-life in vivo” value under setting [11] turned out to be 9.78 ± 0.65 h; the “total protein half-life in vivo” value under setting [6] was 4.33 h; the “total protein half-life in vivo” value under setting [12] is 7.247 ± 0.038 h; the “total protein half-life in vivo” value under setting [7] worked out at 4.67 ± 0.49 h; the “total protein half-life in vivo” value under setting [1] is 9.91 ± 0.5 h.
